In the nanobody polyreactivity screen of Harvey et al. (2022):

assay: yeast display, Sf9 membrane polyspecificity reagent, FACS + sequencing; frameworks hold sequencing errors
Procedure, shortened: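 Galactose-induced (36–48 hours) yeast carrying a synthetic nanobody display library were exposed to 10% biotinylated, detergent-solubilized Sf9 membrane reagent at 4 °C for 1 hour. FACS followed streptavidin microbead enrichment, using low and high (top ~1%) gates for expression (anti-HA) and reagent binding (streptavidin). Colony PCR, MiSeq 2 × 250 sequencing and CDR-length filtering followed. Labels for polyreactivity reflect the gate of origin.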

Sequence | polyreactivity (PSR sort gate)
QVQLVESGGGLVQAGGSLRLSCAASGYIFIRNAMGWYRPAPGKDRELVAAISWTGGNTYYADSVKGRFTISRDNAKNTVYLQMNSLKPEDTAVYYCAALRSVFKSFRTTYVRYDYWGQATQVTVSS | high polyreactivity
QVQLVESGGGLVQAGGSLRLSCAASGYIFIWYDMGWYRQAPGKERELVAAISGSGGSTYYADSVKGRFTISRDNAKNTVYLQMNSLKPEDTAVYYCAAYVPRGNSEVIAMDYWGQGTQVTVSS | low polyreactivity
QVQLVESGGGLVQAGGSLRLSCAASGYIFKIKAMGWYRQAPGKERELVATITWSTGTTYYADSVKGRFTISRDNAKNTVYLQMNSLKPEDTAVYYCNATAIIRIGVLPGDYWGQGTQVTVSS | low polyreactivity
QVQLVESGGGLVQAGGSLRLSCAASGYIFKRYAIGWNRQAPGKERELVAAISGNGGSTYYADSVKGRFTISRDNAKNTVYFQMNSLKPEDTAVYYCNKSGYYSPTSKGEYWGQGTQVTVSS | low polyreactivity
QVQLVESGGGLVQAGGSLRLSCAASGYIFKRYAMGWYRQAPGKERELVAAISSRGGSTYYADSVKGRFTISRDNAKNTVYLQMNSLKPEDTAVYYCAAVSWFRNYYWGQGTQVTVSS | high polyreactivity
QVQLVESGGGLVQAGGSLRLSCAASGYIFKYNTMGWYRQAPGKERELVAAISTGGNTYYADSVKGRFTISRDNAKNTVYLQMNSLKPEDTAVYYCAALSGAHEHFVEYDYWGQGTQVTVSS | low polyreactivity
QVQLVESGGGLVQAGGSLRLSCAASGYIFLAYAMGWYRQAPGKERELVADNTYADSVKGRFTISRDNAKNTVYLQMNSLKPEDTAVYYCNADEVYDEYSYDYWGQGTQVTVSS | low polyreactivity
QVQLVESGGGLVQAGGSLRLSCAASGYIFLRNALGWYRQAPGKERELVAAIRRTGGSTYYADSVKGRFTISRDNAKNTVYLQMNSLKPEDTAVYYCAKRSYTGYEYWGQGTQVTVSS | low polyreactivity
QVQLVESGGGLVQAGGSLRLSCAASGYIFPEYVMGWYRQAPGKERELVAVITWDGTSTYADSVKGRFTISRDNAKNTVYLQMNSLKPEDTAVYYCAADTNYYVDTAGYGDGLDSWGQGTQVTVSS | low polyreactivity
QVQLVESGGGLVQAGGSLRLSCAASGYIFPGNAMGWYRQAPGKERELVAAISSRGGRTYYADSVKGRFTISRDNAKNTVYLQMNSLKPEDTAVYYCAKGGKVGSTLEYDYWGQGTQVTVSS | high polyreactivity
QVQLVESGGGLVQAGGSLRLSCAASGYIFPTNAMGWYRQAPGKERELVAVITSGGSTYYADSVKGRFTISRDNAKNTVYLQMNSLKPEDNAVYYCAARYPGRYGIYRVLYGYWGQGTQVTVSS | high polyreactivity
QVQLVESGGGLVQAGGSLRLSCAASGYIFPYYAMGWYRQAPGKERELVAAISRSGGGTYYADSVKGRFTISRDNAKNTVYLQMNSLKPEDTAVYYCNRRSGHVHEYDYWGQGTQVTVSS | low polyreactivity
QVQLVESGGGLVQAGGSLRLSCAASGYIFQDYAMGWYRQAPAKERELVARISAGGGRTYYADSVKGRFTISRDNAKNTVYLQMISLKPEDTAVYYCAAPLSYYWVYIVRYGYDYWGQGTQVTVSS | low polyreactivity
QVQLVESGGGLVQAGGSLRLSCAASGYIFRFNAMGWYRQAPGKERELVAVNTSGARTYYADSVKGRFTISRDNAKNTVYLQMNSLKPEDTAVYYCNAGARRYLYDYWGQGTQVTVSS | low polyreactivity
QVQLVESGGGLVQAGGSLRLSCAASGYIFRGYVMGWYRQAPGKERELVAAITSSGGSTYYADSVKGRFTISRDNAKNTVYLQMISLKPEDTAVYYCAARGYSPHYYWGQGTQVTVSS | high polyreactivity
QVQLVESGGGLVQAGGSLRLSCAASGYIFRVYAMGWYRQAPGKERELVAAISSGGSTYYADSVKGRFTISRDNAKNTVYLQMNSLKPEDTAVYYCAKAGLALYAFRDDYWGQGTQVTVSS | low polyreactivity
QVQLVESGGGLVQAGGSLRLSCAASGYIFSGYAMGWYRQAPGKERELVAAISSNGGSTYYADSVKGRFTISRDNAKNTVYLQMNSLKPEDTAVYYCNRGLAARVGRGDYWGQGTQVTVSS | low polyreactivity
QVQLVESGGGLVQAGGSLRLSCAASGYIFSHYAMAWYRQAPGKERELVAAISRNGGSTYYADSVKGRFTISRDNAKNTVYLQMNSLKPEDTSVYYCAVGWKYRYGYWGQGTQVTVSS | high polyreactivity
QVQLVESGGGLVQAGGSLRLSCAASGYIFSVNAMGWYRQAPGKERELVAAIRGSGGSTFYADSVKGRFTISRDNAKNTVYLQMNSLKPEDTAVYYCAAYWRGRYDYWGQGTQVTVSS | low polyreactivity
QVQLVESGGGLVQAGGSLRLSCAASGYIFSYNAMGWYRQAPGKERELVAAISRTGGSTNYADSVKGRFTISRDNAKNTVYLQMNSLKPEDTAVYYCAKRYRYPSWGEYGYWGQGTQVTVSS | high polyreactivity

Sequence | polyreactivity (PSR sort gate)
QVQLVESGGGLVQAGGSLRLSCAASGYIFTPYAMGWYRQAPGKERELVAAITGSGSSTYYADSVKGRFTISRDNAKNTVYLQMNSLKPEDTAGYYCAADSYGFYGYYYYELEYWGQGTQVTVSS | low polyreactivity
QVQLVESGGGLVQAGGSLRLSCAASGYIFTYNALGWSRQAPGKDRELVAAISSGHGRTYYADSVKGRFTISRDHAQNTVDLEMNSLKPEDTAVYYCNASRVVYRQAYLYGYDYWGQGTQVTVSS | low polyreactivity
QVQLVESGGGLVQAGGSLRLSCAASGYIFVFNTMGWYRQAPGKERELVASISWDAGSTYYADSVKGRFTISRDNAKNTVYLQMNSLKPEDTAVDYCNAGRIRSGSPDYWGQGTQVTVSS | low polyreactivity
QVQLVESGGGLVQAGGSLRLSCAASGYIFVKNAMGWYRQEPGKERELVAAISSSGGSTYYADSVKGRFTISRDNAKNTVYLQMNSLKPEDTAVYYCNVYGSYTSVSRQSDWWPDYGYWGQGTQVTVSS | low polyreactivity
QVQLVESGGGLVQAGGSLRLSCAASGYIFVRNAMGWYRQAPGKERELVAAISGSGGSTYYADSVKGRFTISRDNAKNTVYLQMNSLKPEDTAVYYFAADYATVTWRGIAYDYWGQGTQVSVSS | low polyreactivity
QVQLVESGGGLVQAGGSLRLSCAASGYIFVRNAMGWYRQAPGKERELVAAISGSGGSTYYADSVKGRFTISRDNAKNTVYLQMNSLKPVDTAVYYCAADYATVTWRGIAYDYWGQGTQVTVSS | low polyreactivity
QVQLVESGGGLVQAGGSLRLSCAASGYIFVRYAMGWYRQAPGKEREFVAAISSSGGSTRYADSVKGRFTISRDNAKNTVYLQMNSLKPEDTAVYYCAATRVARHGSPMYYWGQGTEVTVSS | high polyreactivity
QVQLVESGGGLVQAGGSLRLSCAASGYIFVWYDMGWYRHAPGKERELVAAITWSGGSTYADSVKGRFTISRDNAKNTVYLQMNSLIPEDTAVDYCNADNNLDVYVDYGFNYWGQGTQVTVSS | low polyreactivity
QVQLVESGGGLVQAGGSLRLSCAASGYIFYFNAMGWYRQAPGKEREVVAAITFSGGATYYADSVKGRFTISRDTAKNTVYLQMNSLKPEDTAVYYCAAASRRSGAYTFYRTTSGAYGYWGQGTQVTVSS | high polyreactivity
QVQLVESGGGLVQAGGSLRLSCAASGYIFYGYVMGWYRQAPGKERELVAGITYSGGGGTHYADSVKGRFTISRDNAKNTVYLQMNSLKPEDTAVYYCATADPQLNRTYYSYGMDYWGQGTQVTVSS | low polyreactivity
QVQLVESGGGLVQAGGSLRLSCAASGYIFYTYAMGWYRQAPGKERELVAGITGSGGSTYYADSVKGRFTISRDNAKNTVYLQMNSLKPEDTAVYYCANDIYQIGYRRYDSWGQGTQVTVSS | low polyreactivity
QVQLVESGGGLVQAGGSLRLSCAASGYIIFGNAMGWYRQAPGKERELVAAIRWRGTSTYYADSVKGRFTISRDNAKNTVYLQMNSLKPEDTAVYYCAADVVRSNFYGTFLYDYDYWGQGTQVTVSS | low polyreactivity
QVQLVESGGGLVQAGGSLRLSCAASGYIILLYAMGWYRQAPGKERELVAAISTRDGSTYYADSVKGRFTISRDNGKITVYLQMNSLNPEDTAVYYCATLYYYNYCGQGTQVTVSS | high polyreactivity
QVQLVESGGGLVQAGGSLRLSCAASGYIIRGYVMGWYRQAPGKERELVAAITSRGDSTYYADSVKGRFTISRDNAKNTVYLQMNSLIPEDTAVYYCYFYFRRQYEHEYWGQGTQVTVSS | high polyreactivity
QVQLVESGGGLVQAGGSLRLSCAASGYILGVYAMGWYRQAPGKERDLVASISRSGGSTYYADSVKGRFTISRDNAKNTVYLQMNSLKTEDSAVYYCSNRSRTAHFRLRYDYWGQGTQVTVSS | low polyreactivity
QVQLVESGGGLVQAGGSLRLSCAASGYILHRNAMGWYRQAPGKERELVAVISWGGTSTYYADSVKGRFTISRDNAKNTVYLLMNSLKPEDTAVYYCNAKGWYYKYDYWGQGTQVNVSS | high polyreactivity
QVQLVESGGGLVQAGGSLRLSCAASGYILRYYGLGWYRQAPGKERELVAAITRGVSTNYADSVKGRFSISRDNAKNTVYLKMNSLKPEDTAVYYCAAKYYPYSSLSKPWTMDYWGQGTQVTVSS | low polyreactivity
QVQLVESGGGLVQAGGSLRLSCAASGYILTHYAMGWYRQAPGKERELVAAITRVGNSNYADSVKGRFTISRDNAKNTVYLQMNSLKPEDTAVYYCAADGVASLFGDPPTEFDYWGQGTQVTVSS | low polyreactivity
QVQLVESGGGLVQAGGSLRLSCAASGYISRYNTMGWYRHAPGKERELVAAITWSGGSTYADSVKGRFTISRDNAKNTVYLQMNSLKQEDTAVYYCAAGAYIWDNYSYRWYDYWGQGTQVTVSS | high polyreactivity
QVQLVESGGGLVQAGGSLRLSCAASGYIVDRNAMGWYRQAPGKERELVAAITKRGGITYYADSVKGRFTISRDNAKNTVYLQMNSLKPEDTAVYYCNALARSSRYDYWGQGTQVTVSS | low polyreactivity
